From paper PMC10250241 (Nucleic Acids Research, 2023) come the findings set out here.

The labels stand for the following.
B2: mms22N-3D (S126, T127, S131D) (domain or fragment, S. cerevisiae, UniProt Q06164 1-300, looked up)
chain: MDVDEPNPIVISDSEATDEEISIIYEPEFNENYLWAEENVQEASRSQKIVTERLSLDSTAGESCTPSVVTDTQVTTGLRWSLRKRKAIQKMPYSLERIKHRQLLEGYDISSFDSISNQLTLPKNADDVIHDNDILLTKRTGKPLDEQKDVTIDSIKPENSSVQSQRYDSDEEIPKKRHRTFKDLDQDIVFQSGDSTEDEQDLASTNLQNTQNDEVIFRGRVLNVRTGYRGVLPRVAWEKSLQKQQSSKVTKRKTQLLNHKGVAKRKMNRSAHIEDEEQNLLNDLIAPDDELDIEENAPPD

The target in data set [1] is B2. Nature of the data set: SEC.
The data set “SEC” concerns the molecule itself. As to the kind of experiment: SEC.

B1: His6-Eco1 (enzyme, S. cerevisiae, UniProt P43605 1-281, looked up)
chain: MKARKSQRKAGSKPNLIQSKLQVNNGSKSNKIVKCDKCEMSYSSTSIEDRAIHEKYHTLQLHGRKWSPNWGSIVYTERNHSRTVHLSRSTGTITPLNSSPLKKSSPSITHQEEKIVYVRPDKSNGEVRAMTEIMTLVNNELNAPHDENVIWNSTTEEKGKAFVYIRNDRAVGIIIIENLYGGNGKTSSRGRWMVYDSRRLVQNVYPDFKIGISRIWVCRTARKLGIATKLIDVARENIVYGEVIPRYQVAWSQPTDSGGKLASKYNGIMHKSGKLLLPVYI
With B1, the binding result in data set [1] is recorded as “binds”.

Regarding B2, the “stoichiometry N” value in the data set “SEC” was 2.
